Experimental findings from the Immune Epitope Database (IEDB) are described below.

A word on the Kd: it is the equilibrium constant for the complex coming apart.

The target of experiment [1] is HLA-B*57:01. Nature of the experiment: IEDB peptide-MHC binding, purified MHC/competitive/radioactivity; filed as Kd, often an IC50 or EC50 that approximates it; ≥ and ≤ were set here for values at or beyond the usual limits of such assays.
The target of experiment [2] is HLA-A*03:01. Nature of the experiment: IEDB peptide-MHC binding, purified MHC/competitive/fluorescence; filed as Kd, often an IC50 or EC50 that approximates it; ≥ and ≤ were set here for values at or beyond the usual limits of such assays.
In experiment [3] the target is HLA-A*31:01. The experiment is described as above.
The target in experiment [4] is HLA-A*29:02. The description is as above.
Experiment [5] addresses HLA-A*01:01. Described as above. Conditions: source organism: Xenopus laevis.
The target in experiment [6] is HLA-A*02:01. Nature of the experiment: IEDB peptide-MHC binding, purified MHC/direct/fluorescence; filed as Kd, often an IC50 or EC50 that approximates it; ≥ and ≤ were set here for values at or beyond the usual limits of such assays.
Experiment [7] addresses HLA-A*69:01. Described as above.
Experiment [8] deals with HLA-A*02:12. The description is as above.
Experiment [9] deals with HLA-A*02:11. The description is as above.
The target in experiment [10] is HLA-A*02:19. The experiment is described as above.
In experiment [11] the target is HLA-A*02:03. The description is as above. The settings on record: source organism: Mycobacterium tuberculosis F11.
For experiment [12], the target named is HLA-A*03:01. The experiment is described as above.
Experiment [13] deals with HLA-A*11:01. The experiment is described as above.
In experiment [14] the target is HLA-A*01:01. Described as above.
For experiment [15], the target named is HLA-B*48:01. Described as above. The settings on record: source organism: West Nile virus.
The target in experiment [16] is HLA-B*18:01. Described as above.
The target in experiment [17] is HLA-B*15:01. The description is as above.
Experiment [18] concerns the target HLA-B*58:01. Described as above.
Experiment [19] has as its target HLA-B*27:05. Described as above.
Experiment [20] concerns the target HLA-B*46:01. The description is as above. The settings on record: source organism: West Nile virus.
Experiment [21] concerns the target HLA-B*44:02. The description is as above.
Experiment [22] concerns the target HLA-B*57:01. The experiment is described as above. Conditions: source organism: West Nile virus.
The target in experiment [23] is HLA-B*07:02. Described as above.
Experiment [24] has as its target HLA-A*02:17. Nature of the experiment: IEDB peptide-MHC binding, purified MHC/competitive/radioactivity; filed as Kd, often an IC50 or EC50 that approximates it; ≥ and ≤ were set here for values at or beyond the usual limits of such assays. Conditions: source organism: Dengue virus 1 Singapore/S275/1990.
The target of experiment [25] is HLA-B*40:01. Nature of the experiment: IEDB peptide-MHC binding, purified MHC/direct/fluorescence; filed as Kd, often an IC50 or EC50 that approximates it; ≥ and ≤ were set here for values at or beyond the usual limits of such assays.
Experiment [26] addresses HLA-A*24:03. The description is as above. Conditions: source organism: Campylobacter jejuni.
For experiment [27], the target named is HLA-A*26:01. The description is as above. Conditions: source organism: Campylobacter jejuni.
Experiment [28] has as its target HLA-A*31:01. Described as above. Conditions: source organism: Campylobacter jejuni.
The target of experiment [29] is HLA-B*08:01. The experiment is described as above. Conditions: source organism: Campylobacter jejuni.
Experiment [30] addresses HLA-B*18:01. Nature of the experiment: IEDB peptide-MHC binding, purified MHC/competitive/fluorescence; filed as Kd, often an IC50 or EC50 that approximates it; ≥ and ≤ were set here for values at or beyond the usual limits of such assays. The settings on record: source organism: Orthohantavirus tulaense.
Experiment [31] addresses HLA-A*26:01. The description is as above. The settings on record: source organism: Orthohantavirus tulaense.
Experiment [32] has as its target HLA-A*69:01. Described as above. The settings on record: source organism: Orthohantavirus tulaense.
Experiment [33] deals with HLA-B*27:03. The experiment is described as above. Conditions: source organism: Orthohantavirus tulaense.
The target of experiment [34] is HLA-B*57:01. Described as above. The settings on record: source organism: Orthohantavirus tulaense.
For experiment [35], the target named is HLA-B*51:01. Described as above. Conditions: source organism: Orthohantavirus tulaense.
Experiment [36] deals with HLA-A*68:02. Nature of the experiment: IEDB peptide-MHC binding, purified MHC/direct/fluorescence; filed as Kd, often an IC50 or EC50 that approximates it; ≥ and ≤ were set here for values at or beyond the usual limits of such assays. The settings on record: source organism: Orthohantavirus tulaense.
Where [37] appears, read: source organism: Influenza A virus.
[38] abbreviates: source organism: Orthohantavirus hantanense.
The mark [39] stands for this setting: source organism: Hantaanvirus CGRn93P8.
Setting [40] is: source organism: Escherichia coli.
[41] abbreviates: source organism: Influenza A virus (A/swine/Bakum/5/95(H1N1)).
Setting [42] is: source organism: West Nile virus.
The mark [43] stands for this setting: source organism: Dengue virus 2 Thailand/16681/84.
Where [44] appears, read: source organism: Escherichia coli O157:H7.
The mark [45] stands for this setting: source organism: Bacillus anthracis str. A0488.
Setting [46] is: source organism: Campylobacter jejuni.
[47] abbreviates: source organism: Influenza A virus (A/quail/Hong Kong/FY298/00(H9N2)).

As to SSSMRKTDW, the equilibrium dissociation constant (Kd) in experiment [1] (source organism: Dengue virus 3 Martinique/1243/1999) turned out to be 416 nM.

Regarding LIAPRGYFK, the values for the Kd in experiment [2] (setting [37]) and in [3] (setting [37]) were 10.7 nM and 33.9 nM, respectively.

Take STSLLFLNDM: the Kd in [1] (source organism: Dengue virus 4 Philippines/H241/1956) is 86.4 nM.

Take IVNMGNPDY: the Kd in experiment [4] (source organism: Encephalitozoon cuniculi GB-M1) is 54.4 nM.

As to GSASPTPPY, the figures for the Kd in experiment [5] and in experiment [4] (source organism: Xenopus laevis) were 42.7 nM and 3.7 nM, respectively.

Sequence GIWHGPYWH showed an equilibrium dissociation constant (Kd) in experiment [4] (source organism: Clostridium botulinum E3 str. Alaska E43) of 231 nM.

In the case of QMISPVMSV, the Kd in experiment [6] (setting [38]) was at most 1 nM; in [7] (setting [38]) it was 1.2 nM; in experiment [8] (setting [39]), 3 nM; in [9] (setting [39]), at most 1 nM; in [10] (setting [39]), 7 nM.

As to ALRGVAVGR, the values for the Kd in experiment [2] (setting [40]) and in experiment [3] (setting [40]) were 9.7 nM and 3.8 nM, respectively.

Turning to FLFGDDDAL, the Kd was determined as 2110 nM in [7] (source organism: Mycobacterium tuberculosis), 3 nM in experiment [9] (source organism: Mycobacterium tuberculosis F11) and 2 nM in experiment [11].

In the case of GINDRNFWR, the results for the Kd in experiment [3] (source organism: Influenza A virus (A/swine/Italy/1509-6/97(H1N1))), in experiment [12] (setting [41]) and in experiment [13] (setting [41]) were 3.17 nM, 4140 nM and 148 nM, respectively.

Turning to FTRYRKEAI, the Kd in [14] (setting [42]), in experiment [15], in experiment [12] (setting [42]), in experiment [16] (setting [42]), in experiment [13] (setting [42]) and in experiment [6] (setting [42]) was at least 20000 nM throughout. Moreover, the Kd in [17] (setting [42]), in experiment [18] (setting [42]), in [19] (setting [42]), in experiment [20], in [21] (setting [42]) and in experiment [22] was at least 20000 nM each time. For the same sequence, the dissociation constant (Kd) in experiment [23] (setting [42]) was at least 20000 nM.

Consider RVDGLELKK, for which the Kd in [3] (source organism: Yellow fever virus) was at least 20000 nM; in [13] (source organism: Yellow fever virus 17D) it was 18.8 nM.

As for KMDIGVPLL, the Kd in experiment [7] (source organism: Dengue virus 1 Singapore/S275/1990) is at least 20000 nM; in experiment [8] (setting [43]) it was 4 nM; in experiment [9] (setting [43]) it was at most 1 nM; in experiment [10] (setting [43]), 16 nM; in experiment [24], 1250 nM.

With VGGDIRTLY, the Kd in experiment [4] (source organism: Coxiella burnetii RSA 331) came to 68.6 nM.

Turning to KRVQEVKGY, the values for the Kd in experiment [15] and in experiment [19] (setting [42]) were at least 20000 nM and 782 nM, respectively.

Take IEADIEHFL: the Kd in experiment [16] (setting [38]) is 58.8 nM; in experiment [25] (setting [38]) it was 1.2 nM; in [21] (setting [38]) it was 7670 nM.

In the case of KTTLSLDYAW, in experiment [1] (source organism: Dengue virus 1 Brazil/97-11/1997), the Kd was determined as 0.847 nM.

For the sequence MLRLWWIPY, the Kd is at least 20000 nM in experiment [3] (source organism: Escherichia coli HS), 10100 nM in experiment [12] (setting [44]) and at least 20000 nM in [13] (setting [44]).

As to KLSSMAAER, the values for the Kd in experiment [2] (setting [45]) and in experiment [3] (setting [45]) were 88 nM and 16 nM, respectively.

In the case of VFKVKLHEI, the Kd in [14] (setting [46]) is at least 20000 nM; in [26] it was 92.3 nM; in experiment [12] (setting [46]), at least 20000 nM; in [13] (setting [46]), at least 20000 nM; in experiment [25] (setting [46]) it was at least 20000 nM; in experiment [27] it was at least 20000 nM. In addition, the Kd in experiment [6] (setting [46]) was 18500 nM; in [28] it was at least 20000 nM; in experiment [7] (setting [46]), at least 20000 nM; in [17] (setting [46]) it was at least 20000 nM; in experiment [18] (setting [46]), at least 20000 nM; in experiment [29], 391 nM. Also, the Kd in experiment [19] (setting [46]), in experiment [21] (setting [46]) and in [23] (setting [46]) was at least 20000 nM each time.

In the case of FMFNELLAL, the dissociation constant (Kd) in [30], in experiment [31], in experiment [32], in [33], in experiment [34] and in experiment [35] was at least 20000 nM in each case. The Kd in experiment [12] (source organism: Orthohantavirus tulaense) is at least 20000 nM; in experiment [36] it was at least 20000 nM; in [6] (source organism: Orthohantavirus puumalaense), 0.2 nM.

As for NTMTKDAER, the results for the Kd in experiment [3] (source organism: Influenza A virus (A/Fort Monmouth/1/1947-mouse adapted(H1N1))), in experiment [12] (setting [47]) and in [13] (setting [47]) were 108 nM, at least 20000 nM and at least 20000 nM, respectively.
